Assay results taken from PMC10397247.
Like-named read-outs stand apart in the source and are kept apart here.

Columns and labels:
Assay in all cases: two-hybrid library CCmax;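 also: natural log of median RNA to DNA barcode read ratio; higher means stronger binding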
4H2253-AA = target: T1, 4H2253-AA; conditions: mean of both orientations
T1 chain: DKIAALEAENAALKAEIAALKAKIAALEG

4H_BCR = target: T2, 4H_BCR; conditions: mean of both orientations
T2 chain: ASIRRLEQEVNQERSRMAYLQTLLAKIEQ

4H_APH = target: T3, 4H_APH
T3 chain: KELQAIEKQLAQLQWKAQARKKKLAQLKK

4H249-AA = target: T4, 4H249-AA; conditions: mean of both orientations
T4 chain: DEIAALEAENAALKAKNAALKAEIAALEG

4H717-AA = target: T5, 4H717-AA; conditions: mean of both orientations
T5 chain: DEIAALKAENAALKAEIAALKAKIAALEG

GCN2_T = target: GCN2_T
4H_GCN4 = target: 4H_GCN4
Sequence of 4H_GCN4 (chain, as listed by the source): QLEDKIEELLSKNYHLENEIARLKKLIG

4H3606-AA = target: T6, 4H3606-AA
T6 chain: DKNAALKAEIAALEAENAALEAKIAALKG

4H2330-AA = target: T7, 4H2330-AA; conditions: mean of both orientations
T7 chain: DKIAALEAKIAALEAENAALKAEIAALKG

4H3865-AA = target: T8, 4H3865-AA; conditions: mean of both orientations
T8 chain: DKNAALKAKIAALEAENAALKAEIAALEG

4H2611-AA = target: T9, 4H2611-AA
T9 chain: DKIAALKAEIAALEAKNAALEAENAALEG

4H3697-AA = target: T10, 4H3697-AA; conditions: mean of both orientations
T10 chain: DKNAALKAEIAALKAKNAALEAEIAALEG

4H3718-AA = target: T11, 4H3718-AA; conditions: mean of both orientations
T11 chain: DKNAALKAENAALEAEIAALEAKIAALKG

4H3631-AA = target: T12, 4H3631-AA; conditions: mean of both orientations
T12 chain: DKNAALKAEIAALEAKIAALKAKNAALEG

4H697-AA = target: T13, 4H697-AA; conditions: mean of both orientations
T13 chain: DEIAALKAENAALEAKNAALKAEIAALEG

4H982-AA = target: T14, 4H982-AA; conditions: mean of both orientations
T14 chain: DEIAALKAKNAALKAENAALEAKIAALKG

4H3590-AA = target: T15, 4H3590-AA; conditions: mean of both orientations
T15 chain: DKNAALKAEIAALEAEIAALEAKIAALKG

4H2725-AA = target: T16, 4H2725-AA; conditions: mean of both orientations
T16 chain: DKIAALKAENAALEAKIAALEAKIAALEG

4H3753-AA = target: T17, 4H3753-AA; conditions: mean of both orientations
T17 chain: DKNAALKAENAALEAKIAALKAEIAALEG

4H629-AA = target: T18, 4H629-AA; conditions: mean of both orientations
T18 chain: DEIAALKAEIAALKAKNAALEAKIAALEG

4H2473-AA = target: T19, 4H2473-AA; conditions: mean of both orientations
T19 chain: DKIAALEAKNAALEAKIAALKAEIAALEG

4H3009-AA = target: T20, 4H3009-AA; conditions: mean of both orientations
T20 chain: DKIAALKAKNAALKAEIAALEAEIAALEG

4H570-AA = target: T21, 4H570-AA; conditions: mean of both orientations
T21 chain: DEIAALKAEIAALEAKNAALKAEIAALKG

4H710-AA = target: T22, 4H710-AA; conditions: mean of both orientations
T22 chain: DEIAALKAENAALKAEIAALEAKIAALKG

4H3395-AA = target: T23, 4H3395-AA; conditions: mean of both orientations
T23 chain: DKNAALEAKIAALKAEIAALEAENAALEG

4H2438-AA = target: T24, 4H2438-AA; conditions: mean of both orientations
T24 chain: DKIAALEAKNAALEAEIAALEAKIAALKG

4H745-AA = target: T25, 4H745-AA; conditions: mean of both orientations
T25 chain: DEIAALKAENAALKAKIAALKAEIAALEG

4H909-AA = target: T26, 4H909-AA; conditions: mean of both orientations
T26 chain: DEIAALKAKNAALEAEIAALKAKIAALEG

4H2274-AA = target: T27, 4H2274-AA; conditions: mean of both orientations
T27 chain: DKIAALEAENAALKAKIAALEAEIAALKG

4H3381-AA = target: T28, 4H3381-AA; conditions: mean of both orientations
T28 chain: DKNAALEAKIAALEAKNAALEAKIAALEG

4H850-AA = target: T29, 4H850-AA; conditions: mean of both orientations
T29 chain: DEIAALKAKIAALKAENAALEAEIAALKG

4H458-AA = target: T30, 4H458-AA; conditions: mean of both orientations
T30 chain: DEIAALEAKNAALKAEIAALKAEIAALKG

4H3120-AA = target: T31, 4H3120-AA; conditions: mean of both orientations
T31 chain: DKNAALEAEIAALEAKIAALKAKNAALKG

4H3130-AA = target: T32, 4H3130-AA; conditions: mean of both orientations
T32 chain: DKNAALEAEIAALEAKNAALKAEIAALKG

4H797-AA = target: T33, 4H797-AA; conditions: mean of both orientations
T33 chain: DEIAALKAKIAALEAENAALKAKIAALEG

4H3410-AA = target: T34, 4H3410-AA; conditions: mean of both orientations
T34 chain: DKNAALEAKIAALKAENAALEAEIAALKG

4H3165-AA = target: T35, 4H3165-AA; conditions: mean of both orientations
T35 chain: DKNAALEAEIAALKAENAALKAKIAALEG

4H3016-AA = target: T36, 4H3016-AA; conditions: mean of both orientations
T36 chain: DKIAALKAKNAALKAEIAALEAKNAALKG

4H2865-AA = target: T37, 4H2865-AA
T37 chain: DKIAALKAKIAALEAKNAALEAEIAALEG

4H536-AA = target: T38, 4H536-AA; conditions: mean of both orientations
T38 chain: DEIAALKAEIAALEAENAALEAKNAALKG

4H2389-AA = target: T39, 4H2389-AA; conditions: mean of both orientations
T39 chain: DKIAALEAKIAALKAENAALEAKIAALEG

4H930-AA = target: T40, 4H930-AA; conditions: mean of both orientations
T40 chain: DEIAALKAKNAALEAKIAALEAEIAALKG

4H891-AA = target: T41, 4H891-AA; conditions: mean of both orientations
T41 chain: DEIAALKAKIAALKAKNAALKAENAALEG

B1: 4H2165-AA (peptide)
chain: DKIAALEAEIAALKAKNAALEAKIAALEG
**Q.** Which interaction score (4H2253-AA) does the source give for B1 here?
**A.** -1.02

**Q.** What about the interaction score (4H_BCR) of the same binder?
**A.** -0.379

**Q.** What about the interaction score (4H_APH) of the same binder?
**A.** -1.76

**Q.** What about the interaction score (4H249-AA) of the same binder?
**A.** -1.16

**Q.** What about the interaction score (4H717-AA) of the same binder?
**A.** -1.25

**Q.** What about the interaction score (GCN2_T) of the same binder?
**A.** -1.41

**Q.** And the interaction score (4H_GCN4)?
**A.** -1.58

**Q.** What about the interaction score (4H3606-AA; mean of both orientations) of the same binder?
**A.** -0.638

**Q.** And the interaction score (4H2330-AA)?
**A.** -1.33

B2: 4H1153-AA (peptide)
chain: DENAALEAENAALEAEIAALEAEIAALEG
**Q.** What does the source list for B2?
**A.** interaction score (4H3865-AA): -1.67; interaction score (4H2611-AA; mean of both orientations): -1.92; interaction score (4H3697-AA): -1.72; interaction score (4H717-AA): -1.1; interaction score (4H3606-AA): -0.981; interaction score (4H3718-AA): 0.217; interaction score (4H3631-AA): 0.849; interaction score (4H697-AA): -1.68; interaction score (4H982-AA): -0.675

B3: 4H1350-AA (peptide)
chain: DENAALEAKIAALKAEIAALEAKIAALKG
**Q.** For B3, which interaction score (4H_BCR) is on record?
**A.** -1.28

**Q.** And the interaction score (4H_APH; mean of both orientations)?
**A.** -1.67

**Q.** What about the interaction score (4H2611-AA) of the same binder?
**A.** -1.74

**Q.** What about the interaction score (4H3590-AA) of the same binder?
**A.** 2.09

**Q.** And the interaction score (GCN2_T)?
**A.** -1.41

**Q.** And the interaction score (4H_GCN4)?
**A.** -1.31

B4: 4H171-AA (peptide)
chain: DEIAALEAENAALEAKIAALKAENAALEG
**Q.** B4 was tested. Which interaction score (4H2725-AA) did it give?
**A.** -1.12

**Q.** And the interaction score (4H3865-AA)?
**A.** -0.476

**Q.** And the interaction score (4H3753-AA)?
**A.** -1.25

**Q.** What about the interaction score (4H629-AA) of the same binder?
**A.** -1.29

**Q.** And the interaction score (4H2253-AA)?
**A.** -1.44

**Q.** What about the interaction score (4H2473-AA) of the same binder?
**A.** -1.21

**Q.** What about the interaction score (4H3009-AA) of the same binder?
**A.** 2.13

**Q.** And the interaction score (4H570-AA)?
**A.** -0.493

**Q.** What about the interaction score (4H710-AA) of the same binder?
**A.** 0.905

**Q.** What about the interaction score (4H3697-AA) of the same binder?
**A.** -0.767

**Q.** And the interaction score (4H3395-AA)?
**A.** -1.24

**Q.** And the interaction score (4H3590-AA)?
**A.** -0.733

**Q.** And the interaction score (4H2438-AA)?
**A.** 0.734

**Q.** What about the interaction score (4H745-AA) of the same binder?
**A.** -1.45

**Q.** And the interaction score (4H909-AA)?
**A.** -1.12

**Q.** And the interaction score (4H2274-AA)?
**A.** -1.17

**Q.** And the interaction score (4H3381-AA)?
**A.** -1.57

**Q.** What about the interaction score (4H850-AA) of the same binder?
**A.** -1.11

**Q.** And the interaction score (4H458-AA)?
**A.** -0.711

**Q.** What about the interaction score (4H3120-AA) of the same binder?
**A.** -1.42

**Q.** What about the interaction score (4H3130-AA) of the same binder?
**A.** 0.164

**Q.** And the interaction score (4H797-AA)?
**A.** -1.36

**Q.** What about the interaction score (4H3410-AA) of the same binder?
**A.** -0.741

**Q.** What about the interaction score (4H3165-AA) of the same binder?
**A.** -1.21

**Q.** What about the interaction score (4H3016-AA) of the same binder?
**A.** 1.66

**Q.** What about the interaction score (4H2865-AA) of the same binder?
**A.** -0.997

**Q.** And the interaction score (4H536-AA)?
**A.** -1.32

**Q.** And the interaction score (4H2389-AA)?
**A.** -1.07

**Q.** And the interaction score (4H2330-AA)?
**A.** -2.02

**Q.** What about the interaction score (4H930-AA) of the same binder?
**A.** -1.29

**Q.** And the interaction score (4H891-AA)?
**A.** -0.295

B5: 4H1064-AA (peptide)
chain: DENAALEAEIAALEAKIAALEAKNAALKG
**Q.** Which interaction score (4H249-AA) does the source give for B5 here?
**A.** -2.06

B6: 4H1257-AA (peptide)
chain: DENAALEAENAALKAKIAALKAEIAALEG
**Q.** Which results are given for B6?
**A.** interaction score (4H_BCR): -2.19; interaction score (4H_APH; mean of both orientations): -1.94; interaction score (4H249-AA): -1.46; interaction score (4H717-AA): 0.282; interaction score (GCN2_T): -1.92; interaction score (4H797-AA): -1.57; interaction score (4H_GCN4): -2.56
